According to the supplement of paper PMC7877785:
± gives the uncertainty stated by the source.

Test: self-splicing fitness, log relative to wild type (ln ratio); higher = more splicing; Tetrahymena group I intron in knt gene, E. coli kanamycin selection, DiMSum; sequences stand for … in CUCUCU…GGAGGGAAAAGUUAUCAGGCAUGCACCUGGUAGCUAGUCUUUAAACCAAUAGAUUGCAUCGGUUUAAAAGGCAAGACCGUCAAAUUGCGGGAAAGGGGUCAACAGCCGUUCAGUACCAAGUCUCAGGGGAAACUUUGAGAUGGCCUUGCAAAGGGUAUGGUAAUAAGCUGACGGACAUGGUCCUAACCACGCAGCCAAGUCCUAAGUCAACAGAUCUUCUGUUGAUAUGGAUGCAGUUCACAGACUAAAUGUCGGUCGGGGAAGAUGUAUUCUUCUCAUAAGAUAUAGUCGGACCUCUCCUUAAUGGGAGCUAGCGGAUGAAGUGAUGCAACACUGGAGCCGCUGGGAACUAAUUUGUAUGCGAAAGUAUAUUGAUUAGUUUUGGAGUACUCGUGGUCG
Procedure, shortened: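 A randomised library covering all eight P1ex-region intron nucleotides was built with the intron in the knt kanamycin-resistance gene on pET-22b(+) and held in E. coli BL21(DE3). Cells were grown overnight at 37°C or 30°C on LB agar, with or without 25 μg/mL kanamycin, plus 100 μg/mL carbenicillin, 50 μM IPTG and 0.2% rhamnose, and pooled colonies were amplicon-sequenced on an Illumina HiSeq 2500. DiMSum fitness is the error-weighted combination of wild-type-normalised replicate fold changes, kanamycin versus none.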

| Sequence | self-splicing fitness (ln) (30 °C) | self-splicing fitness (ln) (37 °C) |
| --- | --- | --- |
| CUAAAGCAAUAUUACGUGAC | -1.12 ± 0.051 | -0.411 ± 0.078 |
| CUAAAGCAAUAUUACGUUAA | -3.6 ± 0.11 | -2.53 ± 0.15 |
| CUACAGCAAUAUUACGAAAG | -1.42 ± 0.078 | -0.755 ± 0.094 |
| CUACAGCAAUAUUACGAAUA | -3.07 ± 0.41 | -2.21 ± 0.27 |
| CUACAGCAAUAUUACGAGCA | -2.77 ± 0.16 | -2.56 ± 0.23 |
| CUACAGCAAUAUUACGAGGU | -2.63 ± 0.13 | -3.03 ± 0.27 |
| CUACAGCAAUAUUACGAUAU | -3.89 ± 0.22 | -1.4 ± 0.22 |
| CUACAGCAAUAUUACGAUUG | -0.678 ± 0.055 | -0.0365 ± 0.078 |
| CUACAGCAAUAUUACGCCAU | -3.16 ± 0.12 | -2.45 ± 0.14 |
| CUACAGCAAUAUUACGCGAA | -2.83 ± 0.18 | -3.89 ± 0.31 |
| CUACAGCAAUAUUACGGAAU | -4.13 ± 0.32 | -3.3 ± 0.26 |
| CUACAGCAAUAUUACGGCGU | -3.49 ± 0.13 | -2.94 ± 0.19 |
| CUACAGCAAUAUUACGGCUA | -3.25 ± 0.25 | -3.02 ± 0.22 |
| CUACAGCAAUAUUACGGGCU | -4.53 ± 0.29 | -2.97 ± 0.29 |
| CUACAGCAAUAUUACGGGUA | -3.25 ± 0.19 | -2.05 ± 0.12 |
| CUACAGCAAUAUUACGGGUG | -0.249 ± 0.037 | -0.538 ± 0.053 |
| CUACAGCAAUAUUACGUAUA | -2.73 ± 0.2 | -1.13 ± 0.18 |
| CUACAGCAAUAUUACGUCAA | -3.91 ± 0.19 | -1.82 ± 0.14 |
| CUACAGCAAUAUUACGUCUU | -4.14 ± 0.24 | -3.48 ± 0.25 |
| CUACAGCAAUAUUACGUGAG | -0.958 ± 0.058 | -0.926 ± 0.086 |
| CUACAGCAAUAUUACGUGGG | -4.01 ± 0.2 | -2.61 ± 0.15 |
| CUACAGCAAUAUUACGUUCC | -2.48 ± 0.22 |  |
| CUAGAGCAAUAUUACGAAUU | -3.78 ± 0.28 | -1.95 ± 0.29 |
| CUAGAGCAAUAUUACGAGAC | -2.63 ± 0.29 | -0.86 ± 0.3 |
| CUAGAGCAAUAUUACGAGUG | -0.496 ± 0.067 | -0.868 ± 0.085 |
| CUAGAGCAAUAUUACGAUUU | -3.17 ± 0.2 | -1.48 ± 0.25 |

| Sequence | self-splicing fitness (ln) (30 °C) | self-splicing fitness (ln) (37 °C) |
| --- | --- | --- |
| CUAGAGCAAUAUUACGCAAU | -3.77 ± 0.22 | -3.08 ± 0.34 |
| CUAGAGCAAUAUUACGCAGC | -3.55 ± 0.38 | -3.32 ± 0.46 |
| CUAGAGCAAUAUUACGCAUG | -0.244 ± 0.092 | 0.532 ± 0.1 |
| CUAGAGCAAUAUUACGCGGA |  | -1.33 ± 0.36 |
| CUAGAGCAAUAUUACGCGUU | -4.14 ± 0.24 | -2.46 ± 0.27 |
| CUAGAGCAAUAUUACGGAGC |  | -3.62 ± 0.34 |
| CUAGAGCAAUAUUACGGGAA | -4.25 ± 0.35 | -2.45 ± 0.45 |
| CUAGAGCAAUAUUACGGGAC | -2.5 ± 0.16 | -1.05 ± 0.18 |
| CUAGAGCAAUAUUACGGUUG | -0.207 ± 0.056 | -0.329 ± 0.074 |
| CUAGAGCAAUAUUACGGUUU | -4.03 ± 0.31 |  |
| CUAGAGCAAUAUUACGUACU | -3.83 ± 0.3 | -3.27 ± 0.43 |
| CUAGAGCAAUAUUACGUCGA | -3.94 ± 0.28 | -2.34 ± 0.28 |
| CUAGAGCAAUAUUACGUGGG | -0.857 ± 0.13 | -0.906 ± 0.16 |
| CUAGAGCAAUAUUACGUUAC | -2.88 ± 0.27 |  |
| CUAGAGCAAUAUUACGUUCG | -1.1 ± 0.047 | -0.578 ± 0.076 |
| CUAUAGCAAUAUUACGACUA | -1.87 ± 0.47 |  |
| CUAUAGCAAUAUUACGAGAU | -3.91 ± 0.42 | 0.449 ± 0.18 |
| CUAUAGCAAUAUUACGAGGC | -3.06 ± 0.35 |  |
| CUAUAGCAAUAUUACGAUGG | -3.44 ± 0.24 | -1.18 ± 0.14 |
| CUAUAGCAAUAUUACGCCAC |  | -1.21 ± 0.42 |
| CUAUAGCAAUAUUACGCCUC | -3.66 ± 0.32 | -3.15 ± 0.37 |
| CUAUAGCAAUAUUACGCGAC | -1.89 ± 0.18 | 0.00503 ± 0.2 |
| CUAUAGCAAUAUUACGCGGU | -3.7 ± 0.24 | -2.29 ± 0.22 |
| CUAUAGCAAUAUUACGCGUU | -4.27 ± 0.42 | -2.18 ± 0.3 |
| CUAUAGCAAUAUUACGCUAU | -2.77 ± 0.15 | -1.72 ± 0.27 |
